In patent US20030091584A1 (AstraZeneca / MedImmune, published 2003):
“And” between values parts separate entries of the source, which are not always exact repeats. Identical values can stand only once.

Assays:
[1] = target: T1, F protein of wild type RSV A/Long (respiratory syncytial virus strain …, UniProt P12568 26-574); assay: cell-based or functional assay
[2] = target: T1, F protein of wild type RSV A/Long; assay: cell-based or functional assay; remark: listed apart in the source
[3] = target: T2, RSV F glycoprotein (NUF4) (respiratory syncytial virus); assay: BIAcore, mAb vs NUF4 (1:1)
T2 chain 1: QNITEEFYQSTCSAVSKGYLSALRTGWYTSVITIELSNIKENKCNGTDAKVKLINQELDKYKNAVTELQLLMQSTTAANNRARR
T2 chain 2: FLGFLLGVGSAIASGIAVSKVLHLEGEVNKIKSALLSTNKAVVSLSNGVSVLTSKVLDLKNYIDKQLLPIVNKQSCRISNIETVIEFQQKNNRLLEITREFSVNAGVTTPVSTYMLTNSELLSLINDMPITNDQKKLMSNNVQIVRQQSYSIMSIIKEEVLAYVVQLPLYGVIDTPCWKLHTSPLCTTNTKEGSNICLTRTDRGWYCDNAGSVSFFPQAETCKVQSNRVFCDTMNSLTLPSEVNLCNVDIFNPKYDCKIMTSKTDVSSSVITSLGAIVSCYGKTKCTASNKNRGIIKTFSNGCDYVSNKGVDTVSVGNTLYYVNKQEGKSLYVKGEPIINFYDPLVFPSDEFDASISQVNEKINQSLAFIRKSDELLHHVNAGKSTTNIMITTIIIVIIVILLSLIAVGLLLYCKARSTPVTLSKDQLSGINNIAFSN

[4] = target: T2, RSV F glycoprotein (NUF4); assay: BIAcore, mAb vs NUF4 (2:1)
Bac-F = target: T3, Bac-F; assay: BIAcore, mAb vs Bac-F (1:1)
T3 construct: Construct and strain not described

[5] = target: T4, F protein of RSV A/Long MARM with K272N (respiratory syncytial virus strain …, UniProt P12568 26-574); assay: IFA on MARM-infected HEp-2 cells
T4 construct: whole, on cells; also called MARM B1

[6] = target: T5, F protein of RSV A/Long MARM with K272M (respiratory syncytial virus strain …, UniProt P12568 26-574); assay: IFA on MARM-infected HEp-2 cells
T5 construct: whole, on cells; Seven independent isolates with the same change are kept as one molecule; also called MARM B2; MARM B3

[7] = target: T6, F protein of RSV A/Long MARM with K272T (respiratory syncytial virus strain …, UniProt P12568 26-574); assay: IFA on MARM-infected HEp-2 cells
T6 construct: whole, on cells; also called MARM B7; MARM B10

[8] = target: T7, F protein of RSV A/Long MARM with K272Q (respiratory syncytial virus strain …, UniProt P12568 26-574); assay: IFA on MARM-infected HEp-2 cells
T7 construct: whole, on cells; also called MARM B9; B9

[9] = target: T8, F protein of RSV A/Long MARM with K272E, N276Y (respiratory syncytial virus strain …, UniProt P12568 26-574); assay: IFA on MARM-infected HEp-2 cells
T8 construct: whole, on cells; also called MARM #10; MARM 10

[10] = target: T9, F protein of RSV A/Long MARM with K272E (respiratory syncytial virus strain …, UniProt P12568 26-574); assay: IFA on MARM-infected HEp-2 cells
T9 construct: whole, on cells; also called MARM #6; MARM #9

[11] = target: T10, F protein of RSV MARM with K272Q, N262K (respiratory syncytial virus strain …, UniProt P12568 26-574); assay: IFA on MARM-infected HEp-2 cells
T10 construct: whole, on cells; also called MARM #13; MARM 13

[12] = target: T2, RSV F glycoprotein (NUF4); assay: ITC, NUF4 titrated into antibody
[13] = target: T2, RSV F glycoprotein (NUF4); assay: ITC, NUF4 titrated into antibody, 35 °C
[14] = target: T2, RSV F glycoprotein (NUF4); assay: ITC, NUF4 titrated into antibody, 35 °C (1/Kb)
[15] = target: RSV F protein (immobilized on the BIAcore sensor chip) (respiratory syncytial virus); assay: BIAcore, immobilized F protein;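 also: fab fragments as analytes binding F protein coupled to the chip via EDC/NHS chemistry, with blank surface signal subtracted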

B1: SYNAGIS® (monoclonal antibody) (antibody, V domains shown)
VH: QVTLRESGPALVKPTQTLTLTCTFSGFSLSTSGMSVGWIRQPPGKALEWLADIWWDDKKDYNPSLKSRLTISKDTSKNQVVLKVTNMDPADTATYYCARSMITNWYFDVWGAGTTVTVSS
VL: DIQMTQSPSTLSASVGDRVTITCKCQLSVGYMHWYQQKPGKAPKLLIYDTSKLASGVPSRFSGSGSGTEFTLTISSLQPDDFATYYCFQGSGYPFTFGGGTKLEIK
notes: also called SYNAGIS ®/SYNAGIS ® (HC/LC)
EC50 (nM), in vitro microneutralization of RSV Long [1]: 3.57 nM | Mean IC50 (Control), RSV microneutralization [2]: 0.535 µg/mL | Mean IC50 (Curve), RSV microneutralization [2]: 0.453 µg/mL | Kd [3]: 8.7 nM | Kd [4]: 312 nM | Kd (Bac-F): 3.9 nM | binding result [5]: no binding (tested: 250 ng/ml) | binding result [6]: no binding (tested: 250 ng/ml) | binding result [7]: no binding (tested: 250 ng/ml) | binding result [8]: no binding (tested: 250 ng/ml) | binding result [9]: no binding (tested: 250 ng/ml) | binding result [10]: no binding (tested: 250 ng/ml) | binding result [11]: no binding (tested: 250 ng/ml)

B2: A17d4 (monoclonal antibody) (antibody, V domains shown)
VH: QVTLRESGPALVKPTQTLTLTCTFSGFSLSTAGMSVGWIRQPPGKALEWLADIWWDGKKSYNPSLKDRLTISKDTSKNQVVLKVTNMDPADTATYYCARDMIFNFYFDVWGQGTTVTVSS
VL: DIQMTQSPSTLSASVGDRVTITCLPSSRVGYMHWYQQKPGKAPKLLIYDTMYQASGVPSRFSGSGSGTEFTLTISSLQPDDFATYYCFQFSGYPFTFGGGTKLEIK
notes: mAb with framework and constant regions of SYNAGIS
Fold Difference (Control IC50) [2]: 15 fold | Fold Difference (Curve IC50) [2]: 13 fold | Mean IC50 (Control), RSV microneutralization [2]: 0.0354 µg/mL | Mean IC50 (Curve), RSV microneutralization [2]: 0.0342 µg/mL | Kd [3]: 0.73 nM | koff [3]: 0.000362 s⁻¹ | kon [3]: 499000 M⁻¹ s⁻¹ | number in parentheses after KD (fold against SYNAGIS = 1) [3]: 12 fold | Kd [4]: 1.11 nM | koff [4]: 0.000292 s⁻¹ | kon [4]: 264000 M⁻¹ s⁻¹ | number in parentheses after KD (fold against SYNAGIS = 1) [4]: 281 fold | ΔHb (binding enthalpy) [12]: 16.3 kcal/mol | Ka [13]: 7.5e+07 M⁻¹ | Kd [14]: 13 nM

B3: A13c4 (monoclonal antibody) (antibody, V domains shown)
VH: QVTLRESGPALVKPTQTLTLTCTFSGFSLSTAGMSVGWIRQPPGKALEWLADIWWDGKKSYNPSLKDRLTISKDTSKNQVVLKVTNMDPADTATYYCARDMIFNFYFDVWGQGTTVTVSS
VL: DIQMTQSPSTLSASVGDRVTITCSLSSRVGYMHWYQQKPGKAPKLLIYDTMYQSSGVPSRFSGSGSGTEFTLTISSLQPDDFATYYCFQGSGYPFTFGGGTKVEIK
notes: as for B2
Fold Difference (Control IC50) [2]: 14 fold | Fold Difference (Curve IC50) [2]: 12 fold | Mean IC50 (Control), RSV microneutralization [2]: 0.0375 µg/mL | Mean IC50 (Curve), RSV microneutralization [2]: 0.0376 µg/mL | Kd [3]: 0.75 nM | koff [3]: 0.000272 s⁻¹ | kon [3]: 365000 M⁻¹ s⁻¹ | number in parentheses after KD (fold against SYNAGIS = 1) [3]: 12 fold | Kd [4]: 0.7 nM | koff [4]: 0.000225 s⁻¹ | kon [4]: 320000 M⁻¹ s⁻¹ | number in parentheses after KD (fold against SYNAGIS = 1) [4]: 446 fold | ΔHb (binding enthalpy) [12]: 16 kcal/mol | Ka [13]: 1.07e+08 M⁻¹ | Kd [14]: 9 nM

B4: A4B4 (monoclonal antibody) (antibody, V domains shown)
VH: QVTLRESGPALVKPTQTLTLTCTFSGFSLSTAGMSVGWIRQPPGKALEWLADIWWDDKKHYNPSLKDRLTISKDTSKNQVVLKVTNMDPADTATYYCARDMIFNFYFDVWGQGTTVTVSS
VL: DIQMTQSPSTLSASVGDRVTITCSASSRVGYMHWYQQKPGKAPKLLIYDTFFLDSGVPSRFSGSGSGTEFTLTISSLQPDDFATYYCFQGSGYPFTFGGGTKLEIK
notes: mAb; also called A4B4/A4B4 (HC/LC)
Fold Difference (Control IC50) [2]: 35 fold | Fold Difference (Curve IC50) [2]: 27 fold | Mean IC50 (Control), RSV microneutralization [2]: 0.0154 µg/mL | Mean IC50 (Curve), RSV microneutralization [2]: 0.0171 µg/mL | Kd [3]: 0.57 nM | koff [3]: 0.000282 s⁻¹ | kon [3]: 496000 M⁻¹ s⁻¹ | number in parentheses after KD (fold against SYNAGIS = 1) [3]: 15 fold | Kd [4]: 2 nM | koff [4]: 0.000401 s⁻¹ | kon [4]: 203000 M⁻¹ s⁻¹ | number in parentheses after KD (fold against SYNAGIS = 1) [4]: 156 fold | Kd (Bac-F): 0.02 nM | koff (Bac-F): 1.06e-05 s⁻¹ | kon (Bac-F): 434000 M⁻¹ s⁻¹ | number in parentheses after KD (fold against SYNAGIS = 1) (Bac-F): 195 fold | ΔHb (binding enthalpy) [12]: 22.2 kcal/mol | binding result [9]: no binding (tested: 250 ng/ml) | binding result [10]: no binding (tested: 250 ng/ml) | binding result [11]: no binding (tested: 250 ng/ml) | Ka [13]: 2.69e+08 M⁻¹ | Kd [14]: ~3.7 nM

B5: A13c4 (Fab fragment) (Fab, V domains shown)
VH: QVTLRESGPALVKPTQTLTLTCTFSGFSLSTAGMSVGWIRQPPGKALEWLADIWWDGKKSYNPSLKDRLTISKDTSKNQVVLKVTNMDPADTATYYCARDMIFNFYFDVWGQGTTVTVSS
VL: DIQMTQSPSTLSASVGDRVTITCSLSSRVGYMHWYQQKPGKAPKLLIYDTMYQSSGVPSRFSGSGSGTEFTLTISSLQPDDFATYYCFQGSGYPFTFGGGTKVEIK
notes: Fab
EC50 (nM), in vitro microneutralization of RSV Long [1]: 0.52 nM | Fold Difference (Control IC50) [2]: 21 fold | Fold Difference (Curve IC50) [2]: 17 fold | Mean IC50 (Control), RSV microneutralization [2]: 0.0258 µg/mL | Mean IC50 (Curve), RSV microneutralization [2]: 0.0264 µg/mL | koff [15]: 0.00028 s⁻¹ | kon [15]: 781000 M⁻¹ s⁻¹ and 735000 M⁻¹ s⁻¹
